Tests used:
EAE model mice = assay: EAE model, head-to-head comparison of JY108 to MEDI-551 (Example 9); format: in vivo
Procedure: MEDI-551 (Inebilizumab) is an anti-CD19 monoclonal antibody currently under clinical trial for treating MS. […] For head-to-head comparison, EAE model in this experiment were constructed in the same way as described in Example 8 and MEDI-551 treated group (a single i.v. injection of 250 μg/animal) was included in the experiment. On Day 12 after generation of the EAE model, the male animals were randomly grouped into 4 groups (n=7): MEDI-551 treated group, model group (control), two groups treated with JY108 at 60 μg/animal and at 80 μg/animal with 5 doses in total (Day 14, Day 15, Day 17, Day 19 and Day 21). The clinical scores were recorded for each animal on daily basis (except Day 18). Female mice were grouped similarly (n=7) after day 11 of EAE induction and treated with JY108 (30, 50, 75 μg/animal) and MEDI551 (250 μg/animal).

CD19^+ B cells = assay: Spleen B cells in the EAE experiment (flow cytometry); format: in vivo, mice; conditions: day 15, MEDI-551 treated group
From the text: To better illustrate the mechanism of JY108 in ameliorating EAE symptoms, the spleen B cells in the EAE experiment were examined on day 15, using the same method described in Example 9.

Breg cells = Breg cells in spleen of EAE animals (PE-anti-CD19 / FITC-B10 flow cytometry); format: in vivo, mice
From the text: The seemed contradictory results prompted us to see what happened to other related immune cells after JY108 treatment. Using the method described in Example 5, the spleen cells derived from the animals in the EAE experiment were double stained with PE-anti-CD19 and FITC-B10 (a marker for Breg) and counted via flowcytometry.

MOG specific B cells = assay: ELISPOT of residual MOG specific B cells in spinal cord; format: in vivo, mice
Procedure: Since MOG specific B cells are the major source of autoantibodies for CNS myelination damage, ELISPOT was performed by following the protocol provided by the vendor's manual to compare the residual MOG specific B cells in the spinal cord of the tested animals.

EAE model = conditions: cited from earlier work

B1: MEDI-551: anti-CD19 monoclonal antibody currently under clinical trial for treating MS (antibody, chains of the INN, looked up, V domains shown)
VH: EVQLVESGGGLVQPGGSLRLSCAASGFTFSSSWMNWVRQAPGKGLEWVGRIYPGDGDTNYNVKFKGRFTISRDDSKNSLYLQMNSLKTEDTAVYYCARSGFITTVRDFDYWGQGTLVTVSS
VL: EIVLTQSPDFQSVTPKEKVTITCRASESVDTFGISFMNWFQQKPDQSPKLLIHEASNQGSGVPSRFSGSGSGTDFTLTINSLEAEDAATYYCQQSKEVPFTFGGGTKVEIK
EAE symptoms (clinical score) (EAE model mice; female mice, 250 μg/animal): not effective
EAE symptoms (clinical score) (EAE model mice; male mice, single i.v. 250 μg/animal on day 14): did not show any therapeutic effect
CD19^+ B cells in spleen (CD19^+ B cells): almost completely eliminated
effect on Breg cells (Breg cells): little effect
MOG specific B cells in the spinal cord (MOG specific B cells): depleted MOG specific B cells effectively
EAE symptoms of male mice (EAE model; administered on day 7 after EAE induction (Chen 2014)): able to delay the EAE symptoms
efficacy in EAE model versus anti-CD20 antibody (EAE model; pre-clinical results): more effective than marketed monoclonal anti-CD20 antibody

From patent US20240181074A1, “PEGYLATED T CELL ENGAGER WITH DUAL SPECIFICITIES TO CD3 AND CD19” (Shenzhen Enduring Biotech, Ltd., priority 2021, published 2024)
